# Results reported in US20240218057A1 (ROCKEFELLER UNIVERSITY, published 2024).
# Biological target: T1, SARS-CoV-2 receptor-binding domain (RBD), S protein residues 319-539 (SARS-CoV-2, UniProt P0DTC2 319-539)
# T1 construct: also called WT RBD; SARS-COV-2 RBD
# Test: ELISA on coated RBD
row,Binder,EC50 [ng/mL]
1,"C980 (antibody, V domains shown) VH: QVQLVQSGAEVKKPGSSVKVSCEASGGTFSSDSINWVRQAPGQGLEWMGRIIPIFGATNYAQKFQGRVTITADKSTDTVYMEVSSLTSEDTAVYYCARGGIAVGGWWFDPWGQGTLVTVSS VL: EIVMTQSPATLSVSPGERATLSCRASESVSSKLAWYQQKPGQAPRLLIYGASTRATGISARFSGSGSGTDFTLTISSLESEDFAVYYCQQYNHWPPNTFGQGTKLEIK",4.07
2,"C970 (antibody, V domains shown) VH: QVQLQESGPGLVKPSETLSLTCTVSGDSINKYYWGWIRQPPGKGLEWIGYIYYSGTTNYNPSLKSRVTISVDTSKTQFSLKLSSVTAADTAVYYCARLLSTEWSFNWFDPWGQGTLVTVSS VL: SYELTQPPSVSVSPGQTASITCSGDTLGDKYACWYQQKPGQSPLLVIYQNNKRPSGIPERFSGSNSGNTATLTISGTQAMDEADYYCQAWDSSTAYVFGTGTKVTVL",3.71
3,"C902 (antibody, V domains shown) VH: EVQLVQSGAEVKKPGESLRISCKGSGYSFHTYWIHWVRQMPGKGLEWMGKIDPSDSYTNYSPSFQGHVTFSADRSISTAYLQWSSLKASDTATYYCARLSWSPPTRTTDEKNWFDPWGQGTLVTVSS VL: DIQLTQSPSFLAASAGDRVTITCRASQGISSYLAWYQQKPGKAPKVLIYAASTLQSGVPSRFSGSGSGTEFTLTISSLQPEDCATYYCQQFNSDPLTFGGGTKVEIK",3.4

# Biological target: SARS-COV-2 RBD (SARS-COV-2, UniProt P0DTC2 319-539)
# Test: ELISA, RBD coated on plate
row,Binder,EC50 [ng/mL]
1,"C572 (antibody, V domains shown) VH: EVQLVESGGGLIKPGRSLRLSCTASGFTFGDYAMTWFRQAPGKGLEWVGFIRSKAYGGTTGYAASVKYRFTISRDDSKSIAYLQMDSLKTEDTAVYYCTRWDGWSQHDYWGQGTLVTVSS VL: DIVMTQSPLSLSVTPGEPASISCRSSQSLLHSNGNNYFDWYLQKPGQSPQLLIYLASNRASGVPDRFSGSGSGTDFTLKISRVEAEDVGVYYCMQVLQIPYTFGQGTKLEI",2.9
2,"C566 (antibody, V domains shown) VH: QVQLQESGPGLVKSSQTLSLNCSVFGASISSGGYYWTWIRQHPGKGLEWIGYIHYRGTYYNPSLKSRVTMSVDTSKNQFSLKVRSVSAADTAIYYCARAIVVVTLNWFDLWGQGTLVTVSS VL: NFMLTQPHSVSESPGKTVTISCSGSGGSIASNYVQWYQQRPGSAPTAVIYEDNQRPSGVPDRFSGSIDSSSNSASLTISGLKTEDEADYYCQSYDTSNPVIFGGGTKLTV",5.88
3,"C580 (antibody, V domains shown) VH: EVQLVQSGAEVKKAGESLKISCNSSGYSFTNYWIAWVRQVPGKGLEWMGIIYLGDSDTRYSPSFQGRVTISADKSISAAYLHWSSLKASDTAIYYCARGGPPGGVKLELTDFWGQGTLVTVSS VL: not shown",1.81
4,"C573 (antibody, V domains shown) VH: QVQLQESGPGLVKPSGTLSLTCAVSGGSISTVNWWSWVRQPPGKGLEWIGEIHHSGNTNHNPSLRSRVTISVDKSKNQFSLKLRSVTAADTAVYYCARDGGRPGDAFDLWGQGTMVTVSS VL: QSALTQPASVSGSPGQSITISCTGTSSDVGGYNYVSWYQQHPGKVPKVMIYDVSNRPSGISNRFSGSKSGNTASLTISGLQAEDEADYYCNSYRSNSTRVFGTGTKVTV",2.2
5,"C570 (antibody, V domains shown) VH: QVQLQESGPGLVKPSETLSLTCTVSGASISSYYWSWIRQPPGKGLEWIGYIYYSGSTNYNPSLKSRVTISLDTSKNQFSLQLSSVTAADTAVYYCATYYFDNSGYSYGLDVWGQGTTVTVSS VL: DIQMTQSPSSLSASVGDRVTIACRASQSISSYLHWYQQQPGKAPKLLIYAVTNLQSGVPSRFSGSGSGTDFTLTISSLQPEDFATYYCQQSYSLPQTFGQGTKVEIK",0.74
6,"C101 (antibody, V domains shown) VH: QVQLVESGGGLIQPGGSLRLSCAASGFIVSSNYMSWVRQAPGKGLEWVSVIYSGGSTFYTDSVKGRFTISRDNSKNTLYLQMNSLRAEDTAVYYCVRDYGDFYFDYWGQGTLVTVSS VL: EIVLTQSPGTLSLSPGERATLSCRASQSVSSSYLAWYQQKPGQAPRLLIYGASSRATGIPDRFSGGGSETDFTLTISRLEPEDCAVYYCQQYGSSPRTFGQGTKVEIK",1.51

# Biological target: SARS-CoV-2 receptor-binding domain (WT RBD; S protein residues 319-539) (SARS-CoV-2, UniProt P0DTC2 319-539)
# Test: BLI (Octet Red), IgG on protein A biosensor, WT RBD in solution, 1:1 fit
row,Binder,Kd [nM]
1,"C044 (antibody, V domains shown) VH: EVQLVESGGGLVQPGGSLRLSCAASGFTFSSYSMNWVRQAPGKGLEWVSYISSSSSTIYYADSVKGRFTISRDNAKNSLYLQMNSLRDEDTAVYYCAREAHDGALTDYGDYLNWFDPWGQGTLVTVSS VL: SYELTQPPSVSVAPGKTARITCGGNNIGSKSVHWYQQKPGQAPVLVIYYDSDRPSGIPERFSGSNSGNTATLTISRVEAGDEADYYCQVWDSSSDHLYWVFGGGTKLTVL",189
